Reference: paper doi:10.1101/2020.05.21.107789
Read-outs that look alike come from different tables or passages of the source.

B1: VGLL2^85-149 (β-strand:α-helix:Ω-loop of human VGLL2) (peptide)
peptide: Ac-CVLFTYFQGDISSVVDEHFSRALSQPSSYSPSCTSSKAPRSSGPWRDCSFPMSQRSFPASFWNSA-NH2

Key:
[1] = target: N-terminally V5-tagged Asp272Ala^TEAD4 (full length) (human) (UniProt Q15561); assay: co-IP
[2] = target: TEAD4 (recombinant protein of the TR-FRET and SPR assays) (human); assay: AlphaScreen or HTRF
[3] = target: wt^Sd (Scalloped residues 223-440), N-biotinylated-Avitagged (Drosophila melanogaster) (UniProt P30052); assay: SPR
[4] = target: TEAD4 (recombinant protein of the TR-FRET and SPR assays) (human); assay: SPR
[5] = target: TEAD4 (recombinant protein of the TR-FRET and SPR assays) (human); assay: SPR; remark: listed apart in the source

Chain of wt^Sd (Scalloped residues 223-440), N-biotinylated-Avitagged (Drosophila melanogaster) (P30052 223-440): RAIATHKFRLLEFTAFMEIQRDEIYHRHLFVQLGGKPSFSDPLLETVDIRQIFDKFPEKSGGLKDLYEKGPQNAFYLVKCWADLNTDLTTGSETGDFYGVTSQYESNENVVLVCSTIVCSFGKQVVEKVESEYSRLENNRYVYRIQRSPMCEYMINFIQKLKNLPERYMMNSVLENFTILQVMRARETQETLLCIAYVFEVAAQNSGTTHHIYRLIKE
Chain of N-terminally V5-tagged Asp272Ala^TEAD4 (full length) (human) (Q15561 whole entry D272A): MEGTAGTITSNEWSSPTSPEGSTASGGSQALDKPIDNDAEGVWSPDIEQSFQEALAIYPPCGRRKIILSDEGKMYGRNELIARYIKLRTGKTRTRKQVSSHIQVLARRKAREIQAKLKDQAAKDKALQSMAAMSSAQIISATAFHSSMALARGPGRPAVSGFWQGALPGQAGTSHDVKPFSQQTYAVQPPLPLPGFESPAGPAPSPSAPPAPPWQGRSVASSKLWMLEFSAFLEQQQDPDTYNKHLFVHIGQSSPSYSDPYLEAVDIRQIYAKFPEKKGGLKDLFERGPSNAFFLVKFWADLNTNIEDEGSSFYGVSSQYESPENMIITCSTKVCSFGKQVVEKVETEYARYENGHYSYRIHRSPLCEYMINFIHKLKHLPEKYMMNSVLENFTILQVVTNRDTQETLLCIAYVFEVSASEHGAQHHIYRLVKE

Row | Molecule | IC50 [2] [nM] | Kd [4] [nM] | further results
1 | (FLAG)3-delΩ^VGLL2 (full-length VGLL2 with the Ω-loop deleted) (from UniProt Q8N8G2-1 1-317) (natural protein) | – | – | fold reduction of co-IP (IP over input) against wt^TEAD4 with wt^VGLL2 [1]: 2 fold
2 | VGLL3^140-154 (region of human VGLL3 aligned with the Ω-loop of Vg) (from UniProt A8MV65 140-154) (peptide) | > 500000 | – | –
3 | Vg^298-337 (Vestigial Sd-binding domain without the putative β-strand) (from UniProt Q26366 298-337) (peptide) | – | – | Kd [3]: 61 nM
4 | YAP^85-99 (Ω-loop of YAP) (from UniProt P46937 85-99) (peptide) | 98000 | – | –
5 | Ac-CVLFTYFQGDISSVVDEHFSRALS-NH2 [VGLL2^85-108 (β-strand:α-helix of human VGLL2)] | – | 590 | –
6 | Ac-CVVFTNYSGDTASQVDEHFSRALNYNNKDSKESSSPMSNRNFPPSFWNSN-NH2 [Vg^288-337 (TONDU domain and Ω-loop of Vestigial)] | – | 4.1 | Kd [5]: 3.1 nM
7 | Ac-PMSNRNFPPSFWNSN-NH2 [Vg^323-337 (Ω-loop of Vestigial)] | 157000 | – | –
8 | Ac-PMSQRSFPASFWNSA-NH2 [VGLL2^135-149 (Ω-loop region of human VGLL2)] | 133000 | – | –
9 | B1 | – | 34 | –
